From the supplement of paper PMC9732359
± gives the uncertainty stated by the source.

Assay: protein stability index of a GFP-peptide fusion (yeast GPS) (PSI 1-4); higher = more stable; sorted into four equal gates, so the index is relative within each strain
Method in brief: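 Sequencing reads from sorted gates were used to score each peptide. The library consisted of tiled 17-residue yeast protein peptides fused downstream of GFP on a Cherry-expressing plasmid, pooled and carried in yeast. Mid-log cultures in leucine-free medium were split into four equal gates by GFP/Cherry ratio, and each gate's plasmids were PCR-amplified and Illumina-sequenced. The protein stability index adds up, over all gates, the read frequency multiplied by the gate number.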

Row | Sequence | protein stability index (pdr5∆) | protein stability index (san1∆) | protein stability index (ubr1∆) | protein stability index (doa10∆)
1 | TSAASGDAAPAEEAAAE [RPP0] | 3.44 ± 0.13 | 3.13 ± 0.14 | 3.34 ± 0.11 | –
2 | TSANGIVQFTYGGDGLD [RPO31] | 2.77 ± 0.092 | 2.24 ± 0.15 | 3.04 ± 0.064 | 2.68 ± 0.093
3 | TSAVELGAIEQILIFAA [YJL039C/NUP192] | 2.77 ± 0.071 | 1.77 ± 0.11 | 3.32 ± 0.13 | 2.13 ± 0.16
4 | TSELGNDDFSEVFEFKT [BRR2] | 3.08 ± 0.097 | 2.41 ± 0.083 | 2.7 ± 0.099 | 3.04 ± 0.14
5 | TSLATSAGQPNLLLSAS [ASC1] | 1.93 ± 0.06 | 2.03 ± 0.062 | 1.99 ± 0.049 | 2.03 ± 0.06
6 | TSLKCLVNRKPIPFEFQ [SNF2] | 2.21 ± 0.043 | 2.13 ± 0.053 | 2.19 ± 0.03 | 2.56 ± 0.054
7 | TSLLDSLISVLEASLNS [YJL039C/NUP192] | 1.77 ± 0.09 | 1.87 ± 0.19 | 1.58 ± 0.08 | 1.94 ± 0.083
8 | TSPTMPDYYVSILSFVD [RPT2] | 2.31 ± 0.05 | 2.27 ± 0.042 | 2.15 ± 0.041 | 2.2 ± 0.048
9 | TSRKALEEVSLKWIDTA [RPL3] | 1.89 ± 0.094 | 1.82 ± 0.12 | 1.9 ± 0.088 | 1.67 ± 0.098
10 | TSSTHERKSKTYVITKN [RET1] | 2.66 ± 0.08 | 2.3 ± 0.064 | 2.84 ± 0.076 | 2.44 ± 0.067
11 | TSTEKLYKLNDKIAVAV [PRE9] | 2.93 ± 0.081 | 3.1 ± 0.081 | 2.95 ± 0.068 | 2.84 ± 0.072
12 | TSTGIIRCHREDCDLVI [POP5] | 2.96 ± 0.077 | 2.71 ± 0.075 | 2.56 ± 0.066 | 2.67 ± 0.071
13 | TSTNGDSENNEENSSSN [RGR1] | 3.18 ± 0.11 | 3.36 ± 0.11 | 2.95 ± 0.086 | 2.64 ± 0.18
14 | TSYKKWSFDLPEMSNLY [PRP8] | 2.52 ± 0.05 | 2.26 ± 0.058 | 2.13 ± 0.044 | 2.6 ± 0.055
15 | TTARAKARAKKTKKEKG [RPN2] | 3.63 ± 0.2 | 3.16 ± 0.079 | 3.21 ± 0.089 | 3.31 ± 0.15
16 | TTDDKSMDTKKKHKQKK [BRN1] | 3.32 ± 0.09 | 3.51 ± 0.068 | 3.27 ± 0.054 | 3.21 ± 0.092
17 | TTDKLRSMVRKWQTLIE [RPS1A] | 2.46 ± 0.15 | – | – | 2.72 ± 0.17
18 | TTGSIFEKDLMAYFDEN [BRN1] | 3.15 ± 0.055 | 3.17 ± 0.043 | 3.13 ± 0.033 | 2.83 ± 0.055
19 | TTLKLSPSPILLTSAGC [NUT1] | 1.42 ± 0.039 | 1.45 ± 0.09 | 1.51 ± 0.036 | 1.47 ± 0.043
20 | TTPEINNFIVERVQSDE [SRP68] | 3.38 ± 0.14 | 3.37 ± 0.097 | 2.88 ± 0.13 | 3.18 ± 0.15
21 | TTSEATANDRQINNVHL [RPN4] | 2.91 ± 0.079 | 2.49 ± 0.087 | 2.7 ± 0.097 | 2.97 ± 0.11
22 | TTSERVSNENKKNIDYQ [RRI1] | 3.03 ± 0.09 | 3.13 ± 0.085 | 3.05 ± 0.18 | 2.98 ± 0.083
23 | TTSLNPIQSKVFHAAFE [BRR2] | 2.56 ± 0.071 | 2.08 ± 0.11 | 2.85 ± 0.052 | 2.65 ± 0.062
24 | TTTRIQSQQAQPSDVMF [MED2] | 2.79 ± 0.057 | 3 ± 0.063 | 2.87 ± 0.043 | 2.91 ± 0.061
25 | TTTVLKRYANHTQDIIG [RET1] | 2.75 ± 0.093 | 3.02 ± 0.051 | 2.9 ± 0.055 | 2.04 ± 0.083
26 | TTYSVDDYYKEIIGGGS [ISW2] | 3.02 ± 0.13 | 3.19 ± 0.088 | 3.33 ± 0.13 | 3.32 ± 0.1

Row | Sequence | protein stability index (pdr5∆) | protein stability index (san1∆) | protein stability index (ubr1∆) | protein stability index (doa10∆)
27 | TVDLALFGSPPFILEYD [YMR129W/POM152] | 2.49 ± 0.047 | 1.9 ± 0.087 | 2.7 ± 0.032 | 2.36 ± 0.044
28 | TVELQVGLKNYDPQRDK [RPL1A] | 3.12 ± 0.082 | 3.12 ± 0.094 | 3.18 ± 0.076 | 3.05 ± 0.091
29 | TVPELEIPTQIYRTTRQ [ARP9] | 2.8 ± 0.066 | 2.35 ± 0.08 | 2.83 ± 0.067 | 2.39 ± 0.076
30 | TVTIASSLNLEDTPAND [RPB8] | 2.81 ± 0.054 | 2.65 ± 0.06 | 2.88 ± 0.067 | 2.83 ± 0.066
31 | TYGVPGSENKRGSLDSE [NUT1] | 3.25 ± 0.11 | 3.23 ± 0.15 | 2.99 ± 0.074 | 3.31 ± 0.095
32 | TYLLKNDLVKARDLLDD [RPN9] | 2.78 ± 0.11 | – | 2.52 ± 0.18 | 2.7 ± 0.11
33 | TYNEDIPVEILVRRLSD [PRE9] | 2.84 ± 0.077 | 3.14 ± 0.064 | 2.85 ± 0.059 | 3.06 ± 0.079
34 | TYNMIDAAAEKRNGDEV [ARP7] | 3.03 ± 0.07 | 3.13 ± 0.055 | 3.18 ± 0.044 | 2.85 ± 0.066
35 | VAARAEILRIHSRKMNL [RPT6] | 2.53 ± 0.054 | 2.5 ± 0.081 | 2.64 ± 0.068 | 2.59 ± 0.056
36 | VAIACDLRLGSQSLGVS [PUP3] | 2.75 ± 0.26 | 2.85 ± 0.17 | – | –
37 | VARIYASFNDTFVHVTD [RPS14A] | 1.73 ± 0.04 | 2.12 ± 0.07 | 2.2 ± 0.055 | 1.96 ± 0.06
38 | VASQSPHATATEKEPVP [SNF6] | 3.06 ± 0.061 | 2.88 ± 0.15 | 3.35 ± 0.077 | 3.23 ± 0.11
39 | VASRHPSESEHPIRVLM [YDL116W/NUP84] | 3 ± 0.25 | 2.9 ± 0.23 | – | –
40 | VCFNNLVDENTDYLYRR [YCS4] | 2.56 ± 0.05 | 2.48 ± 0.081 | 2.08 ± 0.037 | 2.61 ± 0.067
41 | VDIEYTRGRNIIMHKDV [RET1] | 2.55 ± 0.13 | 2.92 ± 0.064 | 2.84 ± 0.1 | 2.44 ± 0.11
42 | VDPVYKDVAKPTGPKTA [FAS2] | 3.05 ± 0.1 | 2.52 ± 0.08 | 2.34 ± 0.069 | 2.99 ± 0.096
43 | VDREAMLKPNIIFQQLL [YCG1] | 2.78 ± 0.19 | – | – | 2.98 ± 0.24
44 | VDRSKYNIELPLPPRID [RPT1] | 3.58 ± 0.26 | 3.15 ± 0.094 | 3.14 ± 0.17 | 3.33 ± 0.2
45 | VDVAKDINVKDLKASQR [RPT6] | 3.13 ± 0.11 | 2.63 ± 0.18 | 3.22 ± 0.098 | 3.35 ± 0.14
46 | VDVELITSINVENDTFI [FAS2] | 3.37 ± 0.069 | 3.09 ± 0.086 | 3.32 ± 0.072 | 3.4 ± 0.1
47 | VDVFAMPQSGTGVSVEA [RPN11] | 3.41 ± 0.13 | 3.41 ± 0.076 | 3.05 ± 0.095 | 3.1 ± 0.1
48 | VEAQSHRLTLEDPVTVE [PRE6] | 3.88 ± 0.25 | – | – | 3.23 ± 0.15
49 | VEDVSQNAADLQQICRV [RPL9A] | 3.42 ± 0.047 | 2.76 ± 0.093 | 3.03 ± 0.051 | 2.96 ± 0.096
50 | VEEYTWSSLLNEGLVEY [RPB2] | 3.2 ± 0.18 | 3.11 ± 0.089 | – | –
51 | VEGPKFTIDAKPPISDS [YLR335W/NUP2] | 3.47 ± 0.058 | 3.29 ± 0.048 | 3.36 ± 0.046 | 3.31 ± 0.048
